Assay results reported in publication PMC8911475, “Insight into the Phylogeny and Binding Ability of WRKY Transcription Factors”.

Assays:
WRKY54 DBD [1] = target: T1, WRKY54 DBD (Arabidopsis thaliana, UniProt Q93WU8 133-224); experiment: QCM; QCM: 30 mM HEPES pH 7.5, 0.5 M NaCl, 2 mM TCEP, 25 °C, biotin-dsDNA on avidin; fEMSA: 30 min incubation in the dark, native PAGE 4 °C 120 V 90 min, buffer not stated; details: protein: recombinant; tags: N-term MBP + thrombin site; C-term 12xHis; label: 5' fluorescein (fEMSA); 5' biotin (QCM)
T1 sequence: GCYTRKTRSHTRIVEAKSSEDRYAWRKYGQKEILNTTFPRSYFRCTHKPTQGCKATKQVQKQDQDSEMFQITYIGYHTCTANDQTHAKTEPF

WRKY54 DBD [2] = target: T1, WRKY54 DBD; experiment: QCM; text also gives 68 ± 11.73 pM for T13 (inconsistent); QCM: 30 mM HEPES pH 7.5, 0.5 M NaCl, 2 mM TCEP, 25 °C, biotin-dsDNA on avidin; fEMSA: 30 min incubation in the dark, native PAGE 4 °C 120 V 90 min, buffer not stated; details: protein: recombinant; tags: N-term MBP + thrombin site; C-term 12xHis; label: 5' fluorescein (fEMSA); 5' biotin (QCM)
WRKY54 DBD [3] = target: T1, WRKY54 DBD; experiment: EMSA; QCM: 30 mM HEPES pH 7.5, 0.5 M NaCl, 2 mM TCEP, 25 °C, biotin-dsDNA on avidin; fEMSA: 30 min incubation in the dark, native PAGE 4 °C 120 V 90 min, buffer not stated; details: protein: recombinant, tags: N-term MBP + thrombin site, C-term 12xHis
[4] = label: 5' fluorescein (fEMSA), 5' biotin (QCM)

B1: T12 (dsDNA)
DNA 1: ATTTGTTGACTA
DNA 2: TAGTCAACAAAT
WRKY54 DBD [1]
  Kd: 2.19 ± 0.442 nM

B2: W4 (dsDNA)
DNA 1: ATTTGTTGACTAGG
DNA 2: CCTAGTCAACAAAT
WRKY54 DBD [1]
  Kd: 0.163 ± 0.0101 nM

B3: T13 (dsDNA)
DNA 1: ATTTGTTGACTAG
DNA 2: CTAGTCAACAAAT
WRKY54 DBD [2]
  Kd: 0.192 ± 0.0225 nM

B4: T8 (dsDNA)
DNA 1: GTTGACTA
DNA 2: TAGTCAAC
WRKY54 DBD [3]; [4]
  binding result: no binding

B5: W3 (dsDNA)
DNA 1: TTAACTTGACCCAA
DNA 2: TTGGGTCAAGTTAA
WRKY54 DBD [3]; label: 5' fluorescein
  binding result: no binding

B6: T6 (dsDNA)
DNA 1: TTGACT
DNA 2: AGTCAA
WRKY54 DBD [3]; [4]
  binding result: no binding

B7: W2 (dsDNA)
DNA 1: GTTATTTGACCACC
DNA 2: GGTGGTCAAATAAC
WRKY54 DBD [3]; label: 5' fluorescein
  binding result: no binding

B8: T12a (dsDNA)
DNA 1: TTGTTGACTAGG
DNA 2: CCTAGTCAACAA
WRKY54 DBD [1]
  Kd: 0.047 ± 0.0062 nM

B9: T10 (dsDNA)
DNA 1: GTTGACTAGG
DNA 2: CCTAGTCAAC
WRKY54 DBD [3]; [4]
  binding result: no binding

B10: W1 (dsDNA)
DNA 1: TGTCCTTGACTACA
DNA 2: TGTAGTCAAGGACA
WRKY54 DBD [3]; label: 5' fluorescein
  binding result: no binding
